Experimental data reported in PMC5303546 (Biochemical Pharmacology, 2017).

How the values were obtained:
[1] = system: PTH2R (V241T); assay: LANCE cAMP screen, mutant PTH2; conditions: 1 μM PTH(1–34), 10,000 cells/well, 30 min
Description: (§1) The full-length cDNA of human PTH1 and PTH2 (gift from GlaxoSmithKline) in pcDNA3 (Invitrogen, Paisley, UK) were used to express wild type receptors as described previously [14]. […] These various pcDNA3 constructs were used to express the wild type human PTH1 and PTH2 receptors, and mutant PTH2 receptors, in Human Embryonic Kidney (HEK)-293 cells.
(§2) The HEK-293 cells were cultured in Dulbecco’s Modified Eagle’s Medium (DMEM, from Sigma, Poole, UK) supplemented with 10% foetal calf serum (Lonza Wokinham Ltd., Wokingham, UK) and containing 2 mM L-glutamine, 100 U/ml penicillin and 100 μg/ml streptomycin (Invitrogen, Paisley, UK). Cells were transfected with pcDNA3 containing the cDNA encoding the receptors, using the SuperFect® Transfection Reagent (Qiagen Ltd., Crawley, UK.) and stable clones were selected with G418 antibiotic (Invitrogen, Paisley, UK) as follows. Cells were seeded into a 25 cm^2 flask containing 10 ml of media and transfected when they reached 50–80% confluence. To do this, 20 μl of SuperFect® was mixed with a DNA solution consisting of 5 μg plasmid DNA in 150 μl DMEM. […]
(§3) The LANCE cAMP kit (PerkinElmer Life and Analytical Sciences) was used alongside the manufacturer’s instructions with some minor adaptations as described. […] The acceptor fluorescence signal was read at 665 nm on a ViewLux instrument (Perkin Elmer).

[2] = system: PTH2R (L382T); assay: LANCE cAMP screen, mutant PTH2; conditions: 1 μM PTH(1–34), 10,000 cells/well, 30 min
Description: (§4) These various pcDNA3 constructs were used to express the wild type human PTH1 and PTH2 receptors, and mutant PTH2 receptors, in Human Embryonic Kidney (HEK)-293 cells.
(§5) The HEK-293 cells were cultured in Dulbecco’s Modified Eagle’s Medium (DMEM, from Sigma, Poole, UK) supplemented with 10% foetal calf serum (Lonza Wokinham Ltd., Wokingham, UK) and containing 2 mM L-glutamine, 100 U/ml penicillin and 100 μg/ml streptomycin (Invitrogen, Paisley, UK). Cells were transfected with pcDNA3 containing the cDNA encoding the receptors, using the SuperFect® Transfection Reagent (Qiagen Ltd., Crawley, UK.) and stable clones were selected with G418 antibiotic (Invitrogen, Paisley, UK) as follows. Cells were seeded into a 25 cm^2 flask containing 10 ml of media and transfected when they reached 50–80% confluence. To do this, 20 μl of SuperFect® was mixed with a DNA solution consisting of 5 μg plasmid DNA in 150 μl DMEM. The DNA was incubated with the reagent for 10 min at room temperature after which 1 ml of media was then added and mixed gently. […]
as §3

[3] = system: PTH2R (Y318I); assay: LANCE cAMP screen, mutant PTH2; conditions: 1 μM PTH(1–34), 10,000 cells/well, 30 min
Description: as §4, §5, §3

[4] = system: PTH2R (V296S); assay: LANCE cAMP screen, mutant PTH2; conditions: 1 μM PTH(1–34), 10,000 cells/well, 30 min
Description: as §4, §5, §3

[5] = system: PTH2R (L399M); assay: LANCE cAMP screen, mutant PTH2; conditions: 1 μM PTH(1–34), 10,000 cells/well, 30 min
Description: as §4, §5, §3

[6] = system: PTH2R (I244L); assay: LANCE cAMP screen, mutant PTH2; conditions: 1 μM PTH(1–34), 10,000 cells/well, 30 min
Description: as §1, §2, §3

[7] = system: PTH2R (C397Y); assay: LANCE cAMP screen, mutant PTH2; conditions: 1 μM PTH(1–34), 10,000 cells/well, 30 min
Description: as §4, §5, §3

[8] = system: PTH1; assay: LANCE cAMP screen, wild type PTH1; type: cell-based, human; conditions: 1 μM PTH(1–34); HEK-293 stable cells, 10,000 cells/well, 30 min stimulation
Description: as §1, §2, §3

[9] = system: PTH2R (V146 M); assay: LANCE cAMP screen, mutant PTH2; type: cell-based, human; conditions: 1 μM PTH(1–34), 10,000 cells/well, 30 min
Description: as §1, §2, §3

[10] = system: PTH2R (V380 M); assay: LANCE cAMP screen, mutant PTH2; type: cell-based, human; conditions: 1 μM PTH(1–34), 10,000 cells/well, 30 min
Description: as §4, §5, §3

[11] = system: PTH2R (G327V); assay: LANCE cAMP screen, mutant PTH2; conditions: 1 μM PTH(1–34), 10,000 cells/well, 30 min
Description: as §4, §5, §3

[12] = system: PTH2R (C381A); assay: LANCE cAMP screen, mutant PTH2; conditions: 1 μM PTH(1–34), 10,000 cells/well, 30 min
Description: as §4, §5, §3

[13] = system: PTH2R (A295V); assay: LANCE cAMP screen, mutant PTH2; conditions: 1 μM PTH(1–34), 10,000 cells/well, 30 min
Description: as §1, §2, §3

[14] = system: PTH2R (A293V); assay: LANCE cAMP screen, mutant PTH2; conditions: 1 μM PTH(1–34), 10,000 cells/well, 30 min
Description: as §1, §2, §3

[15] = system: PTH2R (M242F); assay: LANCE cAMP screen, mutant PTH2; conditions: 1 μM PTH(1–34), 10,000 cells/well, 30 min
Description: as §1, §2, §3

[16] = system: PTH2R (A320V); assay: LANCE cAMP screen, mutant PTH2; conditions: 1 μM PTH(1–34), 10,000 cells/well, 30 min
Description: as §4, §5, §3

[17] = system: PTH2R (T192V); assay: LANCE cAMP screen, mutant PTH2; conditions: 1 μM PTH(1–34), 10,000 cells/well, 30 min
Description: as §1, §2, §3

[18] = system: PTH2R (A297V); assay: LANCE cAMP screen, mutant PTH2; conditions: 1 μM PTH(1–34), 10,000 cells/well, 30 min
Description: as §4, §5, §3

[19] = molecular target: parathyroid hormone 2 receptor (PTH2), wild type, human (human) (UniProt P49190); assay: radioligand binding; whole-cell competition: HEK-293 cells expressing the receptor in poly-D-lysine coated 24-well plates; 50 pM ^125I-rPTH(1–34); unlabelled ligand 10 μM–10 pM; room temperature, 2 h; Whole Cell Binding Buffer pH 7.7 with 5% horse serum and 0.5% foetal calf serum; IC50 from a single site model with the Hill co-efficient constrained to 1
[20] = molecular target: PTH2 receptor mutant Tyr-318-Phe (human) (UniProt P49190); assay: as above
[21] = molecular target: PTH2 receptor mutant Tyr-318-Ile (human) (UniProt P49190); assay: as above
[22] = molecular target: parathyroid hormone 2 receptor (PTH2), wild type, human (human) (UniProt P49190)
[23] = molecular target: PTH2 receptor mutant Tyr-318-Phe (human) (UniProt P49190)
[24] = molecular target: PTH2 receptor mutant Tyr-318-Ile (human) (UniProt P49190)
[25] = system: PTH2; conditions: cited from earlier work
Excerpt: Despite the success of the chimeric and single residue-swap studies of PTH1 and PTH2 described above, [14], [15], [20], which identified PTH/PTHrP binding and selectivity determinants at PTH1 and PTH2, the nature of the TIP39 selection has not been explored to the same degree.

Sequence of parathyroid hormone 2 receptor (PTH2), wild type, human (human) (P49190 25-550): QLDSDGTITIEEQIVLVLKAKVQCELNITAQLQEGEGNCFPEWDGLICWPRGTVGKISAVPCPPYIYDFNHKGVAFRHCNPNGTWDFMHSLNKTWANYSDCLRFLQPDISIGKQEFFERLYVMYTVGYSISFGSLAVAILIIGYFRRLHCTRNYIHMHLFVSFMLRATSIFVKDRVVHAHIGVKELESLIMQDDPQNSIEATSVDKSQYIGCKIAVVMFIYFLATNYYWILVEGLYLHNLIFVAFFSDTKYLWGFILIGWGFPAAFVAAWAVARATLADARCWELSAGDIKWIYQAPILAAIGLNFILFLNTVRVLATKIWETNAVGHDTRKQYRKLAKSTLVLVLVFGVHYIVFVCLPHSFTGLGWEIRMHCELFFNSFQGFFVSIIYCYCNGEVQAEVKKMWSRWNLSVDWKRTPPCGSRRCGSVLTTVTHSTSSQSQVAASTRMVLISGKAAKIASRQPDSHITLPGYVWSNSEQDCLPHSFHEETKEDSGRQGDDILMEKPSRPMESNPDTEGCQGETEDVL
Sequence of PTH2 receptor mutant Tyr-318-Ile (human) (P49190 25-550 Y318I): as the sequence (P49190 25-550) above, with Y294I counted along it
Sequence of PTH2 receptor mutant Tyr-318-Phe (human) (P49190 25-550 Y318F): as the sequence (P49190 25-550) above, with Y294F counted along it

Row | Compound | IC50 [19] [nM] | pIC50 [19] | IC50 [20] [nM] | pIC50 [20] | IC50 [21] [nM] | pIC50 [21] | cAMP accumulation (LANCE), EC50; 2500 cells/well, 10 min [22] [nM] | cAMP accumulation (LANCE), pEC50; 2500 cells/well, 10 min [22] | cAMP accumulation (LANCE), EC50; 2500 cells/well, 10 min [23] [nM] | cAMP accumulation (LANCE), pEC50; 2500 cells/well, 10 min [23] | cAMP accumulation (LANCE), EC50; 2500 cells/well, 10 min [24] [nM] | cAMP accumulation (LANCE), pEC50; 2500 cells/well, 10 min [24] | further results
1 | CC[C@H](C)[C@H](NC(=O)[C@H](CCC(=O)O)NC(=O)[C@H](CO)NC(=O)[C@@H](NC(=O)[C@@H](N)CO)C(C)C)C(=O)N[C@@H](CCC(N)=O)C(=O)N[C@@H](CC(C)C)C(=O)N[C@@H](CCSC)C(=O)N[C@@H](Cc1c[nH]cn1)C(=O)N[C@@H](CC(N)=O)C(=O)N[C@@H](CC(C)C)C(=O)NCC(=O)N[C@@H](CCCCN)C(=O)N[C@@H](Cc1c[nH]cn1)C(=O)N[C@@H](CC(C)C)C(=O)N[C@@H](CC(N)=O)C(=O)N[C@@H](CO)C(=O)N[C@@H](CCSC)C(=O)N[C@@H](CCC(=O)O)C(=O)N[C@@H](CCCNC(=N)N)C(=O)N[C@H](C(=O)N[C@@H](CCC(=O)O)C(=O)N[C@@H](Cc1c[nH]c2ccccc12)C(=O)N[C@@H](CC(C)C)C(=O)N[C@@H](CCCNC(=N)N)C(=O)N[C@@H](CCCCN)C(=O)N[C@@H](CCCCN)C(=O)N[C@@H](CC(C)C)C(=O)N[C@@H](CCC(N)=O)C(=O)N[C@@H](CC(=O)O)C(=O)N[C@H](C(=O)N[C@@H](Cc1c[nH]cn1)C(=O)N[C@@H](CC(N)=O)C(=O)N[C@@H](Cc1ccccc1)C(=O)O)C(C)C)C(C)C [PTH(1–34)] | – | – | – | – | – | – | – | – | – | – | – | – | % maximum PTH(1–34) response [1]: 100 ± 1%; % maximum PTH(1–34) response [2]: 102 ± 2%; % maximum PTH(1–34) response [3]: 99 ± 1%; % maximum PTH(1–34) response [4]: 101 ± 2%; % maximum PTH(1–34) response [5]: 101 ± 1%; % maximum PTH(1–34) response [6]: 100 ± 3%; % maximum PTH(1–34) response [7]: 100 ± 2%; % maximum PTH(1–34) response [8]: 99 ± 2%; % maximum PTH(1–34) response [9]: 102 ± 1%; % maximum PTH(1–34) response [10]: 102 ± 1%; % maximum PTH(1–34) response [11]: 100 ± 2%; % maximum PTH(1–34) response [12]: 100 ± 2%; % maximum PTH(1–34) response [13]: 99 ± 2%; % maximum PTH(1–34) response [14]: 99 ± 2%; % maximum PTH(1–34) response [15]: 98 ± 2%; % maximum PTH(1–34) response [16]: 100 ± 1%; % maximum PTH(1–34) response [17]: 102 ± 2%; % maximum PTH(1–34) response [18]: 100 ± 2%
2 | TIP (5–39) (peptide) | 871 | 6.06 | 3240 | 5.49 | 7240 | 5.14 | 17 | 7.77 | 912 | 6.04 | > 1000 | < 6 | –
3 | TIP (6–39) (peptide) | 1050 | 5.98 | 4270 | 5.37 | 8710 | 5.06 | 123 | 6.91 | > 1000 | < 6 | – | – | –
4 | TIP (7–39): TIP39 truncated by the first 6 residues, literature peptide (ref 21) (DAAFRERARLLAALERRHWLNSYMHKLLVLDAP; Tuberoinfundibular peptide of 39 residues; UniProt Q96A98 68-100, looked up, fragment) | – | – | – | – | – | – | – | – | – | – | – | – | efficacy at PTH2 [25]: no efficacy

More lines, main results first:

Row | IC50 [19] [nM] | pIC50 [19] | IC50 [20] [nM] | pIC50 [20] | IC50 [21] [nM] | pIC50 [21] | cAMP accumulation (LANCE), EC50; 2500 cells/well, 10 min [22] [nM] | cAMP accumulation (LANCE), pEC50; 2500 cells/well, 10 min [22] | cAMP accumulation (LANCE), EC50; 2500 cells/well, 10 min [23] [nM] | cAMP accumulation (LANCE), pEC50; 2500 cells/well, 10 min [23] | cAMP accumulation (LANCE), EC50; 2500 cells/well, 10 min [24] [nM] | cAMP accumulation (LANCE), pEC50; 2500 cells/well, 10 min [24] | Compound | further results
5 | 58.9 | 7.23 | 417 | 6.38 | 1480 | 5.83 | 0.12 | 9.92 | 4.79 | 8.32 | 41.7 | 7.38 | TIP (2–39) (peptide) | –
6 | 105 | 6.98 | 479 | 6.32 | 1260 | 5.9 | 0.22 | 9.66 | 9.55 | 8.02 | 50.1 | 7.3 | TIP (3–39) (peptide) | –
7 | 158 | 6.8 | 603 | 6.22 | 1480 | 5.83 | 0.29 | 9.54 | 13.2 | 7.88 | 89.1 | 7.05 | TIP (4–39) (peptide) | –
